Test results: the supplement of paper PMC10567573

B1: TRIM14 (parent)
chain: REQADSCREQLDIMNDLSNRVWSI

Variants of: B1
Assay: protein stability index of a GFP-peptide fusion (GPS, HEK-293T) (PSI 1-6); higher = more stable
Conditions: c terminus: a fixed tail appended
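Also: lentivirally expressed fusions sorted by FACS into six bins by GFP to DsRed ratio, PSI derived from sequencing read proportions per bin multiplied by bin number.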

Point of comparison: REQADSCREQLDIMNDLSNRAWSI [V21A], protein stability index 2.96. Against it:
- REQADSCREQLDIMNDLSNRVWSG [I24G] — higher, 3.72
- REQADSCREQLDIMNDLSNRVWSP [I24P] — higher, 3.64
- REQADSCREQLDIMNDLSNRVWSM [I24M] — lower, 2.79
- REQADSCREQLDIMNDLSNRVWSH [I24H] — higher, 3.6
- REQADSCREQLDIMNDLSNRVWSQ [I24Q] — higher, 3.34
- REQADSCREQLDIMNDLSNRVWSA [I24A] — lower, 2.89
- REQADSCREQLDIMNDLSNRVWSR [I24R] — higher, 3.44
- REQADSCREQLDIMNDLSNRVWSC [I24C] — lower, 2.53
- REQADSCREQLDIMNDLSNRVWSY [I24Y] — lower, 2.53
- REQADSCREQLDIMNDLSNRVWSD [I24D] — higher, 4.01
- REQADSCREQLDIMNDLSNRVWSE [I24E] — higher, 3.68
- REQADSCREQLDIMNDLSNRVWSV [I24V] — lower, 2.17
- REQADSCREQLDIMNDLSNRVWSK [I24K] — higher, 3.55
- REQADSCREQLDIMNDLSNRVWSN [I24N] — higher, 3.95
- REQADSCREQLDIMNDLSNRVWSF [I24F] — lower, 2.25
- REQADSCREQLDIMNDLSNRVWSS [I24S] — higher, 3.46
- REQADSCREQLDIMNDLSNRVWST [I24T] — higher, 4.01
- REQADSCREQLDIMNDLSNRVWSL [I24L] — lower, 2.46
- REQADSCREQLDIMNDLSNRVMSI [W22M] — higher, 3.29
- REQADSCREQLDIMNDLSNRVHSI [W22H] — higher, 3.79
- REQADSCREQLDIMNDLSNRVYSI [W22Y] — lower, 2.78
- REQADSCREQLDIMNDLSNRVASI [W22A] — higher, 3.85
- REQADSCREQLDIMNDLSNRVVSI [W22V] — higher, 3.14
- REQADSCREQLDIMNDLSNRVRSI [W22R] — higher, 4.28
- REQADSCREQLDIMNDLSNRVISI [W22I] — lower, 2.79
- REQADSCREQLDIMNDLSNRVESI [W22E] — higher, 4.84
- REQADSCREQLDIMNDLSNRVDSI [W22D] — higher, 4.56
- REQADSCREQLDIMNDLSNRVFSI [W22F] — lower, 2.82
- REQADSCREQLDIMNDLSNRVKSI [W22K] — higher, 3.98
- REQADSCREQLDIMNDLSNRVNSI [W22N] — higher, 3.72
- REQADSCREQLDIMNDLSNRVCSI [W22C] — higher, 3.77
- REQADSCREQLDIMNDLSNRVLSI [W22L] — higher, 3
- REQADSCREQLDIMNDLSNRVGSI [W22G] — higher, 4.34
- REQADSCREQLDIMNDLSNRVSSI [W22S] — higher, 4.21
- REQADSCREQLDIMNDLSNRVPSI [W22P] — higher, 4.32
- REQADSCREQLDIMNDLSNRVQSI [W22Q] — higher, 4.12
- REQADSCREQLDIMNDLSNRVTSI [W22T] — higher, 4.13
- REQADSCREQLDIMNDLSNVVWSI [R20V] — lower, 2.4
- REQADSCREQLDIMNDLSNCVWSI [R20C] — lower, 1.99
- REQADSCREQLDIMNDLSNNVWSI [R20N] — lower, 2.91
- REQADSCREQLDIMNDLSNLVWSI [R20L] — lower, 1.29
- REQADSCREQLDIMNDLSNSVWSI [R20S] — lower, 2.41
- REQADSCREQLDIMNDLSNFVWSI [R20F] — lower, 2.12
- REQADSCREQLDIMNDLSNHVWSI [R20H] — lower, 2.73
- REQADSCREQLDIMNDLSNEVWSI [R20E] — higher, 3.04
- REQADSCREQLDIMNDLSNWVWSI [R20W] — lower, 1.64
- REQADSCREQLDIMNDLSNIVWSI [R20I] — lower, 2
- REQADSCREQLDIMNDLSNTVWSI [R20T] — lower, 2.19
- REQADSCREQLDIMNDLSNDVWSI [R20D] — higher, 3.31
- REQADSCREQLDIMNDLSNMVWSI [R20M] — lower, 2.24
- REQADSCREQLDIMNDLSNGVWSI [R20G] — lower, 2.77
- REQADSCREQLDIMNDLSNQVWSI [R20Q] — lower, 1.79
- REQADSCREQLDIMNDLSNKVWSI [R20K] — lower, 2.78
- REQADSCREQLDIMNDLSNPVWSI [R20P] — lower, 2.48
- REQADSCREQLDIMNDLSNAVWSI [R20A] — lower, 2.8
- REQADSCREQLDIMNDLSNYVWSI [R20Y] — lower, 2.26
- REQADSCREQLDIMNDLSNRRWSI [V21R] — lower, 2.18
- REQADSCREQLDIMNDLSNRFWSI [V21F] — higher, 3.06
- REQADSCREQLDIMNDLSNRTWSI [V21T] — lower, 2.76
- REQADSCREQLDIMNDLSNRNWSI [V21N] — higher, 2.97
- REQADSCREQLDIMNDLSNRLWSI [V21L] — lower, 2.88
- REQADSCREQLDIMNDLSNRDWSI [V21D] — higher, 3.92
- REQADSCREQLDIMNDLSNREWSI [V21E] — higher, 3.58
- REQADSCREQLDIMNDLSNRKWSI [V21K] — lower, 2.69
- REQADSCREQLDIMNDLSNRQWSI [V21Q] — higher, 3.06
- REQADSCREQLDIMNDLSNRSWSI [V21S] — lower, 2.45
- REQADSCREQLDIMNDLSNRIWSI [V21I] — higher, 3.01
- REQADSCREQLDIMNDLSNRHWSI [V21H] — lower, 2.69
- REQADSCREQLDIMNDLSNRMWSI [V21M] — lower, 2.01
- REQADSCREQLDIMNDLSNRYWSI [V21Y] — higher, 3.19
- REQADSCREQLDIMNDLSNRCWSI [V21C] — lower, 2.41
- REQADSCREQLDIMNDLSNRGWSI [V21G] — lower, 2.87
- REQADSCREQLDIMNDLSNRPWSI [V21P] — higher, 3.01
- REQADSCREQLDIMNDLSNRWWSI [V21W] — lower, 2.01
- REQADSCREQLDIMNDLSNRVWDI [S23D] — higher, 4.14
- REQADSCREQLDIMNDLSNRVWEI [S23E] — lower, 2.65
- REQADSCREQLDIMNDLSNRVWQI [S23Q] — lower, 2.68
- REQADSCREQLDIMNDLSNRVWLI [S23L] — lower, 2.81
- REQADSCREQLDIMNDLSNRVWAI [S23A] — lower, 2.09
- REQADSCREQLDIMNDLSNRVWFI [S23F] — lower, 2.03
- REQADSCREQLDIMNDLSNRVWVI [S23V] — higher, 3.3
- REQADSCREQLDIMNDLSNRVWII [S23I] — lower, 2.75
- REQADSCREQLDIMNDLSNRVWCI [S23C] — lower, 2.57
- REQADSCREQLDIMNDLSNRVWYI [S23Y] — lower, 1.92
- REQADSCREQLDIMNDLSNRVWPI [S23P] — higher, 3.48
- REQADSCREQLDIMNDLSNRVWRI [S23R] — lower, 2.11
- REQADSCREQLDIMNDLSNRVWNI [S23N] — lower, 2.71
- REQADSCREQLDIMNDLSNRVWMI [S23M] — lower, 2.22
- REQADSCREQLDIMNDLSNRVWWI [S23W] — higher, 3.05
- REQADSCREQLDIMNDLSNRVWKI [S23K] — lower, 2.09
- REQADSCREQLDIMNDLSNRVWTI [S23T] — lower, 1.84
- REQADSCREQLDIMNDLSNRVWHI [S23H] — lower, 2.07
- REQADSCREQLDIMNDLSNRVWGI [S23G] — lower, 2.66
